Tests used:
CheW (Escherichia coli) = CheW (Escherichia coli) (UniProt P0A964); conditions: cited from earlier work
[1] = target: Helicobacter pylori transducer-like protein D lacking the N-terminal His tag, TlpD(-His) (Helicobacter pylori (SS1 strain)) (UniProt B5Z6X0); test: AUC; interference experiments, 3 x 28 uM TlpD(-His) in PBS (pH 7), 1 mM TCEP, 20 C, 55,000 rpm; KD from the integrated monomer and dimer peaks; dimer to monomers
[2] = test system: Nc1ncnc2c1ncn2[C@@H]1O[C@H](COP(=O)(O)OP(=O)(O)OP(=O)(O)O)[C@@H](O)[C@H]1O; test: purified protein; conditions: Mg2+ ([…] MgCl2)

CheA, sequence (P07363 whole entry): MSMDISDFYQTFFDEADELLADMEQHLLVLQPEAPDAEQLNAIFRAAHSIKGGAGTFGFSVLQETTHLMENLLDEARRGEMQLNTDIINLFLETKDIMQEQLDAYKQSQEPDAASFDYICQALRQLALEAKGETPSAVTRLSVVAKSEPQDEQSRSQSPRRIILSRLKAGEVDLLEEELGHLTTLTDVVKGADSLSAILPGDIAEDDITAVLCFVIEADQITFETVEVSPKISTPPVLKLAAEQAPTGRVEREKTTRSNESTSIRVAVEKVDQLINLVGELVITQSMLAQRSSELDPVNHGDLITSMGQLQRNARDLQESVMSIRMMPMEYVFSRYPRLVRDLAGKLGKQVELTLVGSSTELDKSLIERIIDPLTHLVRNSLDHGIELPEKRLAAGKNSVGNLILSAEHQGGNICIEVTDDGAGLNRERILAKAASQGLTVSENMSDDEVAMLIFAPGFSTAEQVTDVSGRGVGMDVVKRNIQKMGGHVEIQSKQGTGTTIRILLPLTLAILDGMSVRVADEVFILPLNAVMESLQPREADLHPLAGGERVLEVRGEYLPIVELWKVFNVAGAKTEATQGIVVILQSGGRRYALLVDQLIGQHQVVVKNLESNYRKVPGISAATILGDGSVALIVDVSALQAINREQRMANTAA

CheA (from UniProt P07363)
Kd (CheW (Escherichia coli)): 17 µM

Helicobacter pylori transducer-like protein D lacking the N-terminal His tag, TlpD(-His) (from UniProt B5Z6X0 1-433) (receptor)
Kd [1]: 0.0657 µM

CheA (Helicobacter pylori G27)
Km [2]: 136 µM

From publication PMC6715182, “Helicobacter pylori senses bleach (HOCl) as a chemoattractant using a cytosolic chemoreceptor” (PLoS Biology, 2019)
